One assay concerns Bcl-2 promoter. Briefly: Bcl-2 promoter reporter assay in CHO cells. It counts as cell-based, Chinese hamster. The source says:
The entire CGI-147 open reading frame encodes a 27-kDa protein with no sequence similarity to other proteins. […] To denote this inhibitory transcriptional activity, the Clone-3 gene was denoted Bit1 for Bcl-2 inhibitor of transcription.
A general note: A reporter such as luciferase makes a cellular process visible.

A further assay concerns HOP92 cells. Briefly: Percentage of GFP-positive detached cells after transfection. It counts as cell-based. The settings on record: 72 hours after transfection; cells express only negligible amounts of AES. Here is the method: To determine if Bit1 and AES are both required for apoptosis induction, HEK 293T, HOP92, and CHO cells were transfected with a GFP (vector), GFP-Bit1, or GFP-AES fusion protein constructs, as indicated in FIG. 3E. The cells were examined 48 hours (HEK 293T and CHO) or 72 hours (HOP92) after transfection, and the percentage of GFP-positive detached cells was measured.
Because the HEK 293T cells lack detectable Bit1 activity, it seemed possible that AES required endogenous Bit1 for the pro-apoptotic activity. An NIH data bank identified HOP92 as a cell line that expresses only negligible amounts of AES. […] CHO cells (FIG. 3E) and HeLa cells, which express both Bit1 and AES, underwent apoptosis upon transfection with either protein.

Assay [1] deals with Heat Shock 70 kD protein 1A. Briefly: Northern blot of ecdysone-induced Bit1 or AES cell lines. It counts as cell-based, human. The following applies: ecdysone-inducible ECR-293 cell line expressing Bit1 or AES. Here is the method:
(§1) To determine whether the Bit1/AES pathway can regulate the transcription of genes other than Bcl-2, two stable cell lines were established expressing either-Bit1 or AES under control of an ecdysone-inducible promoter. To detect genes regulated by Bit1 or AES, probes were prepared from the ecdysone-induced cell lines and used to screen microarrays representing 19,000 human cDNAs. […] Down-regulation of HSP-70 and thymosin 4 in cells induced to express Bit1 or AES was confirmed by Northern blot analysis (see FIG. 7).
(§2) Northern blot analysis was performed as follows. Total RNA (10 μg) was electrophoresed on a 1% agarose-formaldehyde gel and transferred to nitrocellulose filters. The filters were hybridized using the same RNA probes as in the microarray experiments in Rapid-hyb buffer and washed according to the manufacturer's instructions (Amersham-Pharmacia).

Another assay concerns Thymosin β-4. Described as above. The following applies: ecdysone-inducible ECR-293 cell line expressing Bit1 or AES. It counts as cell-based, human. On the procedure:
as §1, §2

B1: Bit1: human Bit1 polypeptide of 179 residues (SEQ ID NO:2), pro-apoptotic, expressed in cells by transfection (protein, listed as Homo sapiens)
chain: MPSKSLVMEYLAHPSTLGLAVGVACGMCLGWSLRVCFGMLPKSKTSKTHTDTESEASILGDSGEYKMILVVRNDLKMGKGKVAAQCSHAAVSAYKQIQRRNPEMLKQWEYCGQPKVVVKAPDEETLIALLAHAKMLGLTVSLIQDAGRTQIAPGSQTVLGIGPGPADLIDKVTGHLKLY
As for B1, in the assay with Bcl-2 promoter (CHO cells, 1 μg Bcl-2-luciferase reporter construct, 24 hours in culture), the Bcl-2 promoter activity entry is recorded as “down-regulate”. The “expression of the Bcl-2 promoter construct” value in the assay on Bcl-2 promoter (transfected into CHO cells) was “down-regulated”. Besides, in the assay with HOP92 cells, the “apoptosis induction in HOP92 cells” value is given as “resistant”. Also, the “Northern result, suppression of Heat Shock 70 kD protein 1A” value in assay [1] is recorded as 3 fold. Further, the “Northern result, suppression of Thymosin β-4” value in the assay on Thymosin β-4 was 5 fold.

Source of the values: patent US8017326B2, “Methods of modulating cell death based on the Bit-1/AES regulatory pathway” (Sanford-Burnham Medical Research Institute, priority 2002, dated 2011).
